Data taken from the DeepSol protein solubility set.

Assay: soluble on expression in E. coli; label from the status in PepcDB or PDB records

Sequence	soluble on expression in E. coli
MRLDHLRLQNFRCYEDAHFDFQPGFNLVVGVNGSGKTSLLLGVAECLIPYGNAMGQGQEILSKEDVRFVIDRHEGRSRFERKFPVFIRADGDIFDLPNWRAVRLLEPWEGGVDPSSLSHLSAVLARNNAGEQIDFPVLAFYRANRRWSSARISAEFAAQQRTSRFDGYANWFDAVADLRDFESWLIARTLERLQDRLDSTPTVEREDELEWVNRAIRLAIPDAHDLRYDLRLQSLLVDMGEGNAVPFHELSDGQRSLIALIADIARRMCVLNPHIGKDVLANTGGIVIIDELDIHLHPAWQRNIAPTLKKAFPKVQFIATSHSPQVIGSLQPGEVILLKNGDSSHPRATYGLDSSTILEEVMGVPQREPEIEVLLDELFSTLENNELEKARLQLDALKKKAPDLPEFAGAEALLKRKELIGRLEHHHHHH	soluble
MKLVGSYTSPFVRKLSILLLEKGITFEFINELPYNADNGVAQFNPLGKVPVLVTEEGECWFDSPIIAEYIELMNVAPAMLPRDPLESLRVRKIEALADGIMDAGLVSVREQARPAAQQSEDELLRQREKINRSLDVLEGYLVDGTLKTDTVNLATIAIACAVGYLNFRRVAPGWCVDRPHLVKLVENLFSRESFARTEPPKA	soluble
MGSDKIHHHHHHMSNHNWTRRDFIKGVGATTAGITLSACNPSGDRSATGLTQEALTIKPVIKSSDLEKPDLIVGYVPVNDCAPFAIAWKKGFFRKYGLNVQLNREASWATSRDGLIFGRLDAAPVVSGAVTNARIGAEGARHAPLCAAMTIHRHGNAMTMNKAMWDFGLRPWYEYQEKYGDGALEAFGRDFRGYFEKQPPENKVWAVVLSSAIYEYFVRYVSAAAGVDPLKEFRVIIVPPPQMVTNVRIGAMQAYMVAEPWNTRAITGNEGIGFTFAQGKEVWLGHPDRLLGVMESFIDQYPKTYRSLVKAMIEACQYCSKPENRQEVAELITDRSFTGARPKNKNLPITKLTAPGIIGSYNYGGFDGKDRTIPAADTTIFYDIPDNLPKQPAEHSTFLWRSRSLWLMTQAARWGQIKEFPKNAEQLAEKGWRTDLYRQIAAEMGIQCPQDDYKVEPPEVFIDKKGFDPSDPVGYLNSFAIRANAPTRFFLS	not soluble
MGSDKIHHHHHHMSDYNFAYLDEQTKRMIRRAILKGLAIPGYQVPFASREMPMPYGWGTGGVQVSAAALTPDDTFKVIDQGADDTTNAVSIRKFFERTAGVATTEETEKASIIQTRHRIPEADLREDQILVYQVPIPEPLRFLEPRETETRKMHALEEYGLMHVKLYEDISQHGAIATSYAYPVKVEGRYVMDPSPIPKFDNPKMEMAAIQLFGAGREQRIYAVPPYTKVVSLDFEDYPFEATKAEHPCDLCAAEDSYLDEVIVDDQGGRMFVCSDTDYCRSRREAGHVGRLGQNAPLNTGPEAA	not soluble
MDQIFNKVGSYWLGQKANKQFDSVGNDLNSVSTSIEGGTKWLVNKIKGKMQKPLPELLKEYDLPIGIFPGDATNYEFDEETKKLTVLIPSICEVGYKDSSVLKFTTTVTGHLEKGKLTDVEGIKTKVMIWVKVTSISTDASKVYFTAGMKKSRSRDAYEVQRNGLRVDKF	soluble
MAKINELLRESTTTNSNSIGRPNLVALTRATTKLIYSDIVATQRTNQPVAAFYGIKYLNPDNEFTFKTGATYAGEAGYVDREQITELTEESKLTLNKGDLFKYNNIVYKVLEDTPFATIEESDLELALQIAIVLLKVRLFSDAASTSKFESSDSEIADARFQINKWQTAVKSRKLKTGITVELAQDLEANGFDAPNFLEDLLATEMADEINKDILQSLITVSKRYKVTGITDSGFIDLSYASAPEAGRSLYRMVCEMVSHIQKESTYTATFCVASARAAAILAASGWLKHKPEDDKYLSQNAYGFLANGLPLYCDTNSPLDYVIVGVVENIGEKEIVGSIFYAPYTEGLDLDDPEHVGAFKVVVDPESLQPSIGLLVRYALSANPYTVAKDEKEARIIDGGDMDKMAGRSDLSVLLGVKLPKIIIDE	soluble
GMFVSDQAEAKGFIEDSSLDLLLRNYYFNRDGKSGSGDRVDWTQGFLTTYESGFTQGTVGFGVDAFGYLGLKLDGTSDKTGTGNLPVMNDGKPRDDYSRAGGAVKVRISKTMLKWGEMQPTAPVFAAGGSRLFPQTATGFQLQSSEFEGLDLEAGHFTEGKEPTTVKSRGELYATYAGETAKSADFIGGRYAITDNLSASLYGAELEDIYRQYYLNSNYTIPLASDQSLGFDFNIYRTNDEGKAKAGDISNTTWSLAAAYTLDAHTFTLAYQKVHGDQPFDYIGFGRNGSGAGGDSIFLANSVQYSDFNGPGEKSWQARYDLNLASYGVPGLTFMVRYINGKDIDGTKMSDNNVGYKNYGYGEDGKHHETNLEAKYVVQSGPAKDLSFRIRQAWHRANADQGEGDQNEFRLIVDYPLSILHHHHHHHH	soluble
MSLVAFHEVRFPLRLALGVSGGPVRRTDIVNLSNGRENRNQRWRNARRAYDAGSGIRSVADLYEVLAFFEARRGEMYGFRFRDPVDFKSCPPGETPAATDQRIGTGDGVVTGFQLVKTYADAGGSFSRRIDKPVEGSVIVSVEGVKAAPTDLSVDHATGMVIFRAGRAPPTGAVIRAGFEFDVPVRFAIDRIDINVTAFEAGRIPSIPLMEILPEGHHHHHH	soluble
CIGLVNPKTPENVGSVMRAAGCYGVNSVFYTGKRYDIAKQFCTDTKSQHLNLPLIGVEDLRDIVPLDCVPVAVDLIEGAKPLPDYKHPPRAFYIFGPEDGTLKKEITDFCRETIYVPTNGCMNLAAAVNVIMYDRMAK	not soluble
MGSDKIHHHHHHMDVVDELIKLHEEHVSGLLRLCGQAGWPDYGEQELKLLVQQGRFFGYQNVSGDIISCIGLFLFGRLTSIGLVIVDKEYQRLGLGRRMVNACITQTDENTAIRLCATKEGLPLYEKAGFHTAGSVRKYSCHSFQPYTKKLDAELTSFREQDFHDLTAADLAAFGGDRSNLLQQLISASCECIIARNQDGQLIGYGLSVQTPANLKFGPIIAPSSDVAAQIITRLAAGKQGPMRIDIPSEHTSLHDSLIEMGFHKDDEPPILFYQKKAPIQNGHLYALISQALG	not soluble
MSRRRHSDENDGGQPHKRRKTSDANETEDHLESLICKVGEKSACSLESNLEGLAGVLEADLPNYKSKILRLLCTVARLLPEKLTIYTTLVGLLNARNYNFGGEFVEAMIRQLKESLKANNYNEAVYLVRFLSDLVNCHVIAAPSMVAMFENFVSVTQEEDVPQVRRDWYVYAFLSSLPWVGKELYEKKDAEMDRIFANTESYLKRRQKTHVPMLQVWTADKPHPQEEYLDCLWAQIQKLKKDRWQERHILRPYLAFDSILCEALQHNLPPFTPPPHTEDSVYPMPRVIFRMFDYTDDPEGPVMPGSHSVERFVIEENLHCIIKSHWKERKTCAAQLVSYPGKNKIPLNYHIVEVIFAELFQLPAPPHIDVMYTTLLIELCKLQPGSLPQVLAQATEMLYMRLDTMNTTCVDRFINWFSHHLSNFQFRWSWEDWSDCLSQDPESPKPKFVREVLEKCMRLSYHQRILDIVPPTFSALCPANPTCIYKYGDESSNSLPGHSVALCLAVAFKSKATNDEIFSILKDVPNPNQDDDDDEGFSFNPLKIEVFVQTLLHLAAKSFSHSFSALAKFHEVFKTLAESDEGKLHVLRVMFEVWRNHPQMIAVLVDKMIRTQIVDCAAVANWIFSSELSRDFTRLFVWEILHSTIRKMNKHVLKIQKELEEAKEKLARQHKRRSDDDDRSSDRKDGVLEEQIERLQEKVESAQSEQKNLFLVIFQRFIMILTEHLVRCETDGTSVLTPWYKNCIERLQQIFLQHHQIIQQYMVTLENLLFTAELDPHILAVFQQFCALQA	soluble
SPFDANKLYCSEVLAILLQDNDENRELLGELDGIDVLLQQLSVFKRHNPSTAEEQEMMENLFDSLCSCLMLSSNRERFLKGEGLQLMNLMLREKKISRSSALKVLDHAMIGPEGTDNCHKFVDILGLRTIFPLFMKSPRKIKKVGTTEKEHEEHVCSILASLLRNLRGQQRTRLLNKFTENDSEKVDRLMELHFKYLGAMQVADKKIEGEKHDMVRRGEIIDNDTEEEFYLRRLDAGLFVLQHICYIMAEICNANVPQIRQRVHQILNMRGSSIKIVRHIIKEYAENIGDGRSPEFRENEQKRILGLLENF	not soluble
MGSSHHHHHHGGTGENLYFQGGSGSSCRGIVVAGVTNQARTQMAEAFLRAFTGGRVFVCSGGVHHLGTVHPLAVVTMAEMGIDVSRQSSSSLAGVRRQRETYDVYVSVDAPYTERTSDRYQRRYTDTQAAQQSSMGAAGLSAPCASSTSDFCDPLLASATPAHWTVSQDTTDGRQSWTLWSPRNPAIYHERSTRKLQDHLYEGEPLFMRVRPHGLRKACRVQRRWEVPELTQRFALETEAEQKARFVQARDLLGSLALVLVRDLEREYGETMLDEAAVAAYEKVAATEC	not soluble
KRGTDLGRPINATFDFFSRLFSKRKNVHMTFFNSSTPLDVNYTPNQQEIDTILDKISRSGYESLTKEEKQKLFKASQK	not soluble
MFGKGENLAATDYQMVRHPDIHQAQCLYQTFRDKAVCLTGGDFTGRVIVCQHHGCGIVIQGAFNHFPGMDFRAVDGAGEEGFTGNQLILVIQIQHPELFTLQSRHVQNQPFPCRTGGGEGHAGFMKMAVQGFQGPQNETALAGRHFSGQKGNLLHCSCPLSVNNAHNGAAFRMLQGVIPQTVIMNRHGITLRTAGVMTVRHQTGGNAGGFRAHFSAVTVHDVKQHPCFVIIVIRFGCHKCATVVQGVQIPDTTAVVFIQTVHPAEDPGLQGHPLWNEAKMLRPEADALFIRDYGGNQLLQASLRCTGRRGGVLRQCFHV	not soluble
MGSGESTTRRVSFGLDEDDRVRILRGVKLSEDVLQRMRNTNADPRPPANNKENQGHQTRTPSTSDAQAPKTQAKTTFPDSKEELKKRYEQQQAIIQEELARIARKEREAARQDISRAVQRERAQTRQESERAKQLGKQLDKKEAELKALEAFYQEQITQLEKKNEERFRMSAEQFHAAATRSEANIKARNVEPVCLNLQAQILNCYRENREQTLQCSDLAKEYMQCINAAKKNLLVNHG	not soluble
MCQLDVASIGDIASYRLSPISKLRYLRHTESPKSPKSSIAIPRKRYKRYRQISRMPKNHFWKNGDISYTETHIGDIFNMPYFQISIFPISPSLSAINTTIARHEFSRRQKSQNAYFGQTHILLFTAAYSPFLEHHHHHH	soluble
MNFKLNNTLSNEINTLIIGIPEHLNQLERISFNHIDITESLERLKHQHIIGSKVGKIYTTAFDVQDQTYRLITVGLGNLKTRSYQDMLKIWGHLFQYIKSEHIEDTYLLMDSFISKYDQLSDVLMACGIQSERATYEFDHYKSSKKAPFKTNLNLISESLIELDFIHEGISIGQSINLARDFSNMPPNVLTPQTFAEDIVNHFKNTKVKVDVKDYDTLVSEGFGLLQAVGKGSKHKPRLVTITYNGKDKDEAPIALVGKGITYDSGGYSIKTKNGMATMKFDMCGAANVVGIIEAASRLQLPVNIVGVLACAENMINEASMKPDDVFTALSGETVEVMNTDAEGRLVLADAVFYANQYQPSVIMDFATLTGAAIVALGDDKAAAFESNSKVILNDILQISSEVDEMVFELPITATERASIKHSDIADLVNHTNGQGKALFAASFVTHFSGQTPHIHFDIAGPATTNKASYNGPKGPTGFMIPTIVQWLKQQ	not soluble
